Laboratory results from article PMC7305327, “Repurposing type I–F CRISPR–Cas system as a transcriptional activation tool in human cells”.

Biological target: T1, PaeCascade (type I-F Csy complex: Csy1, Csy2, Csy3, Csy4 + crRNA) (Pseudomonas aeruginosa, UniProt Q02ML9;Q02MM0;Q02MM1;Q02MM2 1-434;1-327;1-342;1-187)
T1 sequence 1: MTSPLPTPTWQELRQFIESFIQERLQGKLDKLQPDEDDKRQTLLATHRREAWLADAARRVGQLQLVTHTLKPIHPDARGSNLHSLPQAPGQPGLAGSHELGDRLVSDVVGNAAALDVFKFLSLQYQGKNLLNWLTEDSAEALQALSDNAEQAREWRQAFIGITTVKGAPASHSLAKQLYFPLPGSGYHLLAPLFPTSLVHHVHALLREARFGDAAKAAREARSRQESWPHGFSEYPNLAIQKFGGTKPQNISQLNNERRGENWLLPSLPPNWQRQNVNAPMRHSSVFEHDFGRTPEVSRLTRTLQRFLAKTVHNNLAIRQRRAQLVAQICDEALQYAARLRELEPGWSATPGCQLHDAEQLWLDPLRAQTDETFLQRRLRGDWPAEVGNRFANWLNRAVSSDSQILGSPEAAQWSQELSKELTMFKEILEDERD
T1 sequence 2: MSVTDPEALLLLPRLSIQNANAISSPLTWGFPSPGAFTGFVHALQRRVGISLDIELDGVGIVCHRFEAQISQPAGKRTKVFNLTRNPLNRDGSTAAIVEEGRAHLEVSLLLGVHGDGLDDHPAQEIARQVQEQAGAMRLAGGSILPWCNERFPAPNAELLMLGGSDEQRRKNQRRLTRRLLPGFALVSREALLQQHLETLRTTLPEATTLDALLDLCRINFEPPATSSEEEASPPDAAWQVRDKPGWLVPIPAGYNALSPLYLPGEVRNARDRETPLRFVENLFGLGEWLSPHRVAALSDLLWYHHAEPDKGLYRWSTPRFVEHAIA
T1 sequence 3: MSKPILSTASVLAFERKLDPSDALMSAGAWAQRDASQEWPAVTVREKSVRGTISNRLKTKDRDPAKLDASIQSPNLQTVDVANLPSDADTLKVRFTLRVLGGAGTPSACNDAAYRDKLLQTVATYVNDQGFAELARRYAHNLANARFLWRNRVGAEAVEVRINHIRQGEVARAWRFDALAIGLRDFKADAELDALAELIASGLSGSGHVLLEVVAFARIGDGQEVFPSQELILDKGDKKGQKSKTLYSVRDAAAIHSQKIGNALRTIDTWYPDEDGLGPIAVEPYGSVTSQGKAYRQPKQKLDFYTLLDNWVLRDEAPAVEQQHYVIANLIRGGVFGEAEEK
T1 sequence 4: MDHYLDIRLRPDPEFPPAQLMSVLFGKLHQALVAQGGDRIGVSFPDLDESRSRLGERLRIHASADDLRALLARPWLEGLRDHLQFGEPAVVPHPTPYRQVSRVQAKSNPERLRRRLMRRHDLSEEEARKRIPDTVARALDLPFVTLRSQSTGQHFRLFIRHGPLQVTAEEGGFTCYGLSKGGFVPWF
Assay: EMSA; crRNA-loaded complex; 200 nM DNA; 1 mM EDTA; 50 mM HEPES-Na pH 7.0, 50 mM NaCl, 1 mM DTT, 1 mM EDTA, 10 IU RNase inhibitor, 200 nM dsDNA, 37 C 30 min; non-denaturing TBE-PAGE, GelRed stain
Settings: protein: recombinant; copies: 1;1;6;1; blunt

B1: type I-F EMSA target dsDNA (dsDNA)
DNA 1: CTATCGAAGCAATACAGGTAGACGCGGACATCAAGCCCGCCGTGAAGGTGCAGCTTCTC
DNA 2: GAGAAGCTGCACCTTCACGGCGGGCTTGATGTCCGCGTCTACCTGTATTGCTTCGATAG
binding result: binds
